Test results reported in publication PMC3901395 (2013).
Substitutions are numbered along the chain they refer to. Like-named read-outs stand apart in the source and are kept apart here. Each block holds one binder with its values, some of them ahead of it.

What was measured:
Assay in all cases: ITC
[1] = target: T1, linear tetra-SUMO2 (4×SUMO2-ΔN11) (UniProt P61956 12-95; P61956 12-95; P61956 12-95; P61956 12-95)
mono-SUMO2 [2] = target: T2, mono-SUMO2 (UniProt P61956 12-93)
[3] = target: T3, linear di-SUMO2 (2×SUMO2-ΔN11) (UniProt P61956 12-95; P61956 12-95)
[4] = target: T3, linear di-SUMO2 (2×SUMO2-ΔN11); remark: listed apart in the source
[5] = target: T1, linear tetra-SUMO2 (4×SUMO2-ΔN11); remark: listed apart in the source
linear tri-SUMO = linear tri-SUMO (UniProt P61956 12-95; P61956 12-95; P61956 12-95)
mono-SUMO1 = mono-SUMO1 (UniProt P63165 16-97)
mono-SUMO2 [6] = target: T2, mono-SUMO2; remark: listed apart in the source

T3 sequence (P61956 other isoform, or with tags, fused parts or gaps mutant): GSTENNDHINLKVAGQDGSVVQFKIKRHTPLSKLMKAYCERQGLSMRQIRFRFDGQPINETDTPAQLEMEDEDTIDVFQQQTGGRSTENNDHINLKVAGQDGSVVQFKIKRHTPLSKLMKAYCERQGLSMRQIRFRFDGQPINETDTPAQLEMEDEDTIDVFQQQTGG
T2 sequence (P61956 12-93): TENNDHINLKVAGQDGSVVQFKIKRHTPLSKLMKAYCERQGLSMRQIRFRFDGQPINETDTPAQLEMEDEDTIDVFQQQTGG
T1 sequence (P61956 other isoform, or with tags, fused parts or gaps mutant): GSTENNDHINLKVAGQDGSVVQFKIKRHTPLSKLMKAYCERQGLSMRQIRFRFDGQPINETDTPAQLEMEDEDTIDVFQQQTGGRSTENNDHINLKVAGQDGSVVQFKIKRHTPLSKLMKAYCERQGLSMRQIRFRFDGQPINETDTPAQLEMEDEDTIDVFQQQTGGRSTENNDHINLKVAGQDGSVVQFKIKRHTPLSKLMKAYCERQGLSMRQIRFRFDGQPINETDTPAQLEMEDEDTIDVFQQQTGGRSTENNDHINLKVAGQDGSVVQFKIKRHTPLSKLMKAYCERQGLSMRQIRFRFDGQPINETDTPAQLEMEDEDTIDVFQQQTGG
Chain of linear tri-SUMO (P61956 other isoform, or with tags, fused parts or gaps): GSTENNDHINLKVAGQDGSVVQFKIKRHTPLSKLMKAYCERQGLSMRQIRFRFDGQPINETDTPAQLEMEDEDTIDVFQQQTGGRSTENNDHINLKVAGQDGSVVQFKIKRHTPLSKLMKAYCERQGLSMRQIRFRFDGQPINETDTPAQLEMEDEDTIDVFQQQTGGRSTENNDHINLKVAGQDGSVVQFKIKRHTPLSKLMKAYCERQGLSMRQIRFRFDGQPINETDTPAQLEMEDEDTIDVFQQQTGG
Chain of mono-SUMO1 (P63165 16-97): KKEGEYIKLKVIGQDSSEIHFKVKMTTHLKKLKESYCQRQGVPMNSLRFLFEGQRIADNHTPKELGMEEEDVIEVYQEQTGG

Kd [1]: 1.6 µM
B1: RNF4-SIM domain SIM1/2 double mutant (domain or fragment)
chain: MSTRKRRGGAINSRQAQKRTREATSTPEISLEAEPAAAAETAGDEIAAAACESLEPVVVDLTHNDSVVIVDERRRPRRNARRLPQDHADSCVVSSDDEELSRDRDVYVTTHTPRNARDEGATGLR

Kd (mono-SUMO2 [2]): 106 µM
B2: RNF4-SIM2/3 peptide (peptide)
chain: GDEIVDLTCESLEPVVVDLTHND
modifications: exact peptide ends are only in Figure 2A; limits taken as SIM2 and SIM3 (VDLT, VDLT) plus short flanks; end groups unknown

Kd (mono-SUMO2 [2]): 121 µM
Kd [3]: 44 µM
B3: RNF4-SIM1/2 peptide (peptide)
chain: EAEPIELVETAGDEIVDLTCESL
modifications: exact peptide ends are only in Figure 2A; limits taken as SIM1 and SIM2 (IELV, VDLT) plus short flanks; end groups unknown

Kd [4]: 3.5 µM
Kd [5]: 0.8 µM
Kd (linear tri-SUMO): 1.5 µM
B4: full-length RNF4 (natural protein)
chain: MSTRKRRGGAINSRQAQKRTREATSTPEISLEAEPIELVETAGDEIVDLTCESLEPVVVDLTHNDSVVIVDERRRPRRNARRLPQDHADSCVVSSDDEELSRDRDVYVTTHTPRNARDEGATGLRPSGTVSCPICMDGYSEIVQNGRLIVSTECGHVFCSQCLRDSLKNANTCPTCRKKINHKRYHPIYI

Kd [3]: 16 µM
B5: RNF4-SIM domain SIM4 mutant (domain or fragment)
chain: MSTRKRRGGAINSRQAQKRTREATSTPEISLEAEPIELVETAGDEIVDLTCESLEPVVVDLTHNDSAAAADERRRPRRNARRLPQDHADSCVVSSDDEELSRDRDVYVTTHTPRNARDEGATGLR

Kd [3]: 14 µM
B6: RNF4-SIM domain SIM1/4 double mutant (domain or fragment)
chain: B5 chain with I36A, E37A, L38A, V39A

Kd (mono-SUMO1): 123 µM
Kd (mono-SUMO2 [6]): 145 µM
B7: RNF4 1–125 (RNF4-SIM domain, wt) (domain or fragment)
chain: B5 chain with A67V, A68V, A69I, A70V

Kd (mono-SUMO2 [2]): 61 µM
Kd [3]: 72 µM
B8: RNF4-SIM3/4 peptide (peptide)
chain: LEPVVVDLTHNDSVVIVDERR
modifications: exact peptide ends are only in Figure 2A; limits taken as SIM3 and SIM4 (VDLT, VVIV) plus short flanks; end groups unknown
